Experimental data as given in patent US12099068B2, “Biomarkers for graft-versus-host disease” (Incyte Corporation, priority 2018, dated 2024).

B1: VWC2 (protein, UniProt Q2TAL6 28-325, looked up)
Brorin: SPSIPLEKLAQAPEQPGQEKREHASRDGPGRVNELGRPARDEGGSGRDWKSKSGRGLAGREPWSKLKQAWVSQGGGAKAGDLQVRPRGDTPQAEALAAAAQDAIGPELAPTPEPPEEYVYPDYRGKGCVDESGFVYAIGEKFAPGPSACPCLCTEEGPLCAQPECPRLHPRCIHVDTSQCCPQCKERKNYCEFRGKTYQTLEEFVVSPCERCRCEANGEVLCTVSACPQTECVDPVYEPDQCCPICKNGPNCFAETAVIPAGREVKTDECTICHCTYEEGTWRIERQAMCTRHECRQM
B2: BACH1 (protein, UniProt O14867 1-736, looked up)
Transcription regulator …: MSLSENSVFAYESSVHSTNVLLSLNDQRKKDVLCDVTIFVEGQRFRAHRSVLAACSSYFHSRIVGQADGELNITLPEEVTVKGFEPLIQFAYTAKLILSKENVDEVCKCVEFLSVHNIEESCFQFLKFKFLDSTADQQECPRKKCFSSHCQKTDLKLSLLDQRDLETDEVEEFLENKNVQTPQCKLRRYQGNAKASPPLQDSASQTYESMCLEKDAALALPSLCPKYRKFQKAFGTDRVRTGESSVKDIHASVQPNERSENECLGGVPECRDLQVMLKCDESKLAMEPEETKKDPASQCPTEKSEVTPFPHNSSIDPHGLYSLSLLHTYDQYGDLNFAGMQNTTVLTEKPLSGTDVQEKTFGESQDLPLKSDLGTREDSSVASSDRSSVEREVAEHLAKGFWSDICSTDTPCQMQLSPAVAKDGSEQISQKRSECPWLGIRISESPEPGQRTFTTLSSVNCPFISTLSTEGCSSNLEIGNDDYVSEPQQEPCPYACVISLGDDSETDTEGDSESCSAREQECEVKLPFNAQRIISLSRNDFQSLLKMHKLTPEQLDCIHDIRRRSKNRIAAQRCRKRKLDCIQNLESEIEKLQSEKESLLKERDHILSTLGETKQNLTGLCQKVCKEAALSQEQIQILAKYSAADCPLSFLISEKDKSTPDGELALPSIFSLSDRPPAVLPPCARGNSEPGYARGQESQQMSTATSEQAGPAEQCRQSGGISDFCQQMTDKCTTDE
B3: PAM (protein, UniProt P19021 31-973, looked up)
Peptidyl-glycine …: FKETTRPFSNECLGTTRPVVPIDSSDFALDIRMPGVTPKQSDTYFCMSMRIPVDEEAFVIDFKPRASMDTVHHMLLFGCNMPSSTGSYWFCDEGTCTDKANILYAWARNAPPTRLPKGVGFRVGGETGSKYFVLQVHYGDISAFRDNNKDCSGVSLHLTRLPQPLIAGMYLMMSVDTVIPAGEKVVNSDISCHYKNYPMHVFAYRVHTHHLGKVVSGYRVRNGQWTLIGRQSPQLPQAFYPVGHPVDVSFGDLLAARCVFTGEGRTEATHIGGTSSDEMCNLYIMYYMEAKHAVSFMTCTQNVAPDMFRTIPPEANIPIPVKSDMVMMHEHHKETEYKDKIPLLQQPKREEEEVLDQGDFYSLLSKLLGEREDVVHVHKYNPTEKAESESDLVAEIANVVQKKDLGRSDAREGAEHERGNAILVRDRIHKFHRLVSTLRPPESRVFSLQQPPPGEGTWEPEHTGDFHMEEALDWPGVYLLPGQVSGVALDPKNNLVIFHRGDHVWDGNSFDSKFVYQQIGLGPIEEDTILVIDPNNAAVLQSSGKNLFYLPHGLSIDKDGNYWVTDVALHQVFKLDPNNKEGPVLILGRSMQPGSDQNHFCQPTDVAVDPGTGAIYVSDGYCNSRIVQFSPSGKFITQWGEESSGSSPLPGQFTVPHSLALVPLLGQLCVADRENGRIQCFKTDTKEFVREIKHSSFGRNVFAISYIPGLLFAVNGKPHFGDQEPVQGFVMNFSNGEIIDIFKPVRKHFDMPHDIVASEDGTVYIGDAHTNTVWKFTLTEKLEHRSVKKAGIEVQEIKEAEAVVETKMENKPTSSELQKMQEKQKLIKEPGSGVPVVLITTLLVIPVVVLLAIAIFIRWKKSRAFGDSEHKLETSSGRVLGRFRGKGSGGLNLGNFFASRKGYSRKGFDRLSTEGSDQEKEDDGSESEEEYSAPLPALAPSSS
B4: CPM (protein, UniProt P14384 18-423, looked up)
Carboxypeptidase M: LDFNYHRQEGMEAFLKTVAQNYSSVTHLHSIGKSVKGRNLWVLVVGRFPKEHRIGIPEFKYVANMHGDETVGRELLLHLIDYLVTSDGKDPEITNLINSTRIHIMPSMNPDGFEAVKKPDCYYSIGRENYNQYDLNRNFPDAFEYNNVSRQPETVAVMKWLKTETFVLSANLHGGALVASYPFDNGVQATGALYSRSLTPDDDVFQYLAHTYASRNPNMKKGDECKNKMNFPNGVTNGYSWYPLQGGMQDYNYIWAQCFEITLELSCCKYPREEKLPSFWNNNKASLIEYIKQVHLGVKGQVFDQNGNPLPNVIVEVQDRKHICPYRTNKYGEYYLLLLPGSYIINVTVPGHDPHITKVIIPEKSQNFSALKKDILLPFQGQLDSIPVSNPSCPMIPLYRNLPDHS
B5: MEPE (protein, UniProt Q9NQ76 18-525, looked up)
Matrix extracellular …: PTFQPQTEKTKQSCVEEQRQEEKNKDNIGFHHLGKRINQELSSKENIVQERKKDLSLSEASENKGSSKSQNYFTNRQRLNKEYSISNKENTHNGLRMSIYPKSTGNKGFEDGDDAISKLHDQEEYGAALIRNNMQHIMGPVTAIKLLGEENKENTPRNVLNIIPASMNYAKAHSKDKKKPQRDSQAQKSPVKSKSTHRIQHNIDYLKHLSKVKKIPSDFEGSGYTDLQERGDNDISPFSGDGQPFKDIPGKGEATGPDLEGKDIQTGFAGPSEAESTHLDTKKPGYNEIPEREENGGNTIGTRDETAKEADAVDVSLVEGSNDIMGSTNFKELPGREGNRVDAGSQNAHQGKVEFHYPPAPSKEKRKEGSSDAAESTNYNEIPKNGKGSTRKGVDHSNRNQATLNEKQRFPSKGKSQGLPIPSRGLDNEIKNEMDSFNGPSHENIITHGRKYHYVPHRQNNSTRNKGMPQGKGSWGRQPHSNRRFSSRRRDDSSESSDSGSSSESDGD
B6: MATN3 (protein, UniProt O15232 29-486, looked up)
Matrilin-3: DPVARPGFRRLETRGPGGSPGRRPSPAAPDGAPASGTSEPGRARGAGVCKSRPLDLVFIIDSSRSVRPLEFTKVKTFVSRIIDTLDIGPADTRVAVVNYASTVKIEFQLQAYTDKQSLKQAVGRITPLSTGTMSGLAIQTAMDEAFTVEAGAREPSSNIPKVAIIVTDGRPQDQVNEVAARAQASGIELYAVGVDRADMASLKMMASEPLEEHVFYVETYGVIEKLSSRFQETFCALDPCVLGTHQCQHVCISDGEGKHHCECSQGYTLNADKKTCSALDRCALNTHGCEHICVNDRSGSYHCECYEGYTLNEDRKTCSAQDKCALGTHGCQHICVNDRTGSHHCECYEGYTLNADKKTCSVRDKCALGSHGCQHICVSDGAASYHCDCYPGYTLNEDKKTCSATEEARRLVSTEDACGCEATLAFQDKVSSYLQRLNTKLDDILEKLKINEYGQIHR
B7: TXLNA (protein, UniProt P40222 1-546, looked up)
Alpha-taxilin: MKNQDKKNGAAKQSNPKSSPGQPEAGPEGAQERPSQAAPAVEAEGPGSSQAPRKPEGAQARTAQSGALRDVSEELSRQLEDILSTYCVDNNQGGPGEDGAQGEPAEPEDAEKSRTYVARNGEPEPTPVVNGEKEPSKGDPNTEEIRQSDEVGDRDHRRPQEKKKAKGLGKEITLLMQTLNTLSTPEEKLAALCKKYAELLEEHRNSQKQMKLLQKKQSQLVQEKDHLRGEHSKAVLARSKLESLCRELQRHNRSLKEEGVQRAREEEEKRKEVTSHFQVTLNDIQLQMEQHNERNSKLRQENMELAERLKKLIEQYELREEHIDKVFKHKDLQQQLVDAKLQQAQEMLKEAEERHQREKDFLLKEAVESQRMCELMKQQETHLKQQLALYTEKFEEFQNTLSKSSEVFTTFKQEMEKMTKKIKKLEKETTMYRSRWESSNKALLEMAEEKTVRDKELEGLQVKIQRLEKLCRALQTERNDLNKRVQDLSAGGQGSLTDSGPERRPEGPGAQAPSSPRVTEAPCYPGAPSTEASGQTGPQEPTSARA
B8: CNTNAP2 (protein, UniProt Q9UHC6 28-1331, looked up)
Contactin-associated …: APSTSQKCDEPLVSGLPHVAFSSSSSISGSYSPGYAKINKRGGAGGWSPSDSDHYQWLQVDFGNRKQISAIATQGRYSSSDWVTQYRMLYSDTGRNWKPYHQDGNIWAFPGNINSDGVVRHELQHPIIARYVRIVPLDWNGEGRIGLRIEVYGCSYWADVINFDGHVVLPYRFRNKKMKTLKDVIALNFKTSESEGVILHGEGQQGDYITLELKKAKLVLSLNLGSNQLGPIYGHTSVMTGSLLDDHHWHSVVIERQGRSINLTLDRSMQHFRTNGEFDYLDLDYEITFGGIPFSGKPSSSSRKNFKGCMESINYNGVNITDLARRKKLEPSNVGNLSFSCVEPYTVPVFFNATSYLEVPGRLNQDLFSVSFQFRTWNPNGLLVFSHFADNLGNVEIDLTESKVGVHINITQTKMSQIDISSGSGLNDGQWHEVRFLAKENFAILTIDGDEASAVRTNSPLQVKTGEKYFFGGFLNQMNNSSHSVLQPSFQGCMQLIQVDDQLVNLYEVAQRKPGSFANVSIDMCAIIDRCVPNHCEHGGKCSQTWDSFKCTCDETGYSGATCHNSIYEPSCEAYKHLGQTSNYYWIDPDGSGPLGPLKVYCNMTEDKVWTIVSHDLQMQTPVVGYNPEKYSVTQLVYSASMDQISAITDSAEYCEQYVSYFCKMSRLLNTPDGSPYTWWVGKANEKHYYWGGSGPGIQKCACGIERNCTDPKYYCNCDADYKQWRKDAGFLSYKDHLPVSQVVVGDTDRQGSEAKLSVGPLRCQGDRNYWNAASFPNPSSYLHFSTFQGETSADISFYFKTLTPWGVFLENMGKEDFIKLELKSATEVSFSFDVGNGPVEIVVRSPTPLNDDQWHRVTAERNVKQASLQVDRLPQQIRKAPTEGHTRLELYSQLFVGGAGGQQGFLGCIRSLRMNGVTLDLEERAKVTSGFISGCSGHCTSYGTNCENGGKCLERYHGYSCDCSNTAYDGTFCNKDVGAFFEEGMWLRYNFQAPATNARDSSSRVDNAPDQQNSHPDLAQEEIRFSFSTTKAPCILLYISSFTTDFLAVLVKPTGSLQIRYNLGGTREPYNIDVDHRNMANGQPHSVNITRHEKTIFLKLDHYPSVSYHLPSSSDTLFNSPKSLFLGKVIETGKIDQEIHKYNTPGFTGCLSRVQFNQIAPLKAALRQTNASAHVHIQGELVESNCGASPLTLSPMSSATDPWHLDHLDSASADFPYNPGQGQAIRNGVNRNSAIIGGVIAVVIFTILCTLVFLIRYMFRHKGTYHTNEAKGAESAESADAAIMNNDPNFTETIDESKKEWLI
B9: PVR (protein, UniProt P15151 21-417, looked up)
Poliovirus receptor: WPPPGTGDVVVQAPTQVPGFLGDSVTLPCYLQVPNMEVTHVSQLTWARHGESGSMAVFHQTQGPSYSESKRLEFVAARLGAELRNASLRMFGLRVEDEGNYTCLFVTFPQGSRSVDIWLRVLAKPQNTAEVQKVQLTGEPVPMARCVSTGGRPPAQITWHSDLGGMPNTSQVPGFLSGTVTVTSLWILVPSSQVDGKNVTCKVEHESFEKPQLLTVNLTVYYPPEVSISGYDNNWYLGQNEATLTCDARSNPEPTGYNWSTTMGPLPPFAVAQGAQLLIRPVDKPINTTLICNVTNALGARQAELTVQVKEGPPSEHSGISRNAIIFLVLGILVFLILLGIGIYFYWSKCSREVLWHCHLCPSSTEHASASANGHVSYSAVSRENSSSQDPQTEGTR

System: plasma proteins
Assay: Plasma proteins modulated between baseline and day 28 in responders (CR, VGPR, PR; n = 19), Example 6 (Table 13)
Format: in vivo, human
Conditions: plasma protein (OLINK NPX); responders (CR, VGPR, PR; n = 19); itacitinib 200 mg or 300 mg QD with corticosteroids; day 28 vs baseline
Procedure, shortened: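 Plasma at baseline/screening and day 28 profiled for >1000 proteins by OLINK proximity extension assay, reported as NPX (log2). Steroid-naive and steroid-refractory patients pooled. Paired and unpaired t tests, ANOVA and Pearson correlation applied; significance at P<0.05.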

| Molecule | Fold Change, Increased Expression from Baseline to Day 28 | Fold Change, Decreased Expression from Baseline to Day 28 |
| --- | --- | --- |
| B1 | 1.3331 |  |
| B2 |  | −1.4794 |
| B3 | 1.1653 |  |
| B4 | 1.1479 |  |
| B5 |  | −1.4941 |
| B6 |  | −1.3384 |
| B7 |  | −1.5277 |
| B8 |  | −1.3091 |
| B9 | 1.1964 |  |
